The text below walks through data of the supplement of paper PMC7877785.

The nature of this data set: self-splicing fitness, log relative to wild type (ln ratio); higher = more splicing; Tetrahymena group I intron in knt gene, E. coli kanamycin selection, DiMSum; sequences stand for … in CUCUCU…GGAGGGAAAAGUUAUCAGGCAUGCACCUGGUAGCUAGUCUUUAAACCAAUAGAUUGCAUCGGUUUAAAAGGCAAGACCGUCAAAUUGCGGGAAAGGGGUCAACAGCCGUUCAGUACCAAGUCUCAGGGGAAACUUUGAGAUGGCCUUGCAAAGGGUAUGGUAAUAAGCUGACGGACAUGGUCCUAACCACGCAGCCAAGUCCUAAGUCAACAGAUCUUCUGUUGAUAUGGAUGCAGUUCACAGACUAAAUGUCGGUCGGGGAAGAUGUAUUCUUCUCAUAAGAUAUAGUCGGACCUCUCCUUAAUGGGAGCUAGCGGAUGAAGUGAUGCAACACUGGAGCCGCUGGGAACUAAUUUGUAUGCGAAAGUAUAUUGAUUAGUUUUGGAGUACUCGUGGUCG
The essentials:
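Six replicate transformations of E. coli BL21(DE3) with a pET-22b(+) library were grown overnight at 37°C or 30°C. The library randomised all eight P1ex-region intron nucleotides, the intron lying in the knt kanamycin-resistance gene, and plates were LB agar with or without 25 μg/mL kanamycin plus 100 μg/mL carbenicillin, 50 μM IPTG and 0.2% rhamnose. Pooled colonies were amplicon-sequenced on an Illumina HiSeq 2500, and fitness is the DiMSum error-weighted combination of wild-type-normalised replicate fold changes, kanamycin versus none.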

± gives the uncertainty stated by the source.

With UGCAAGCAAUAUUACGGAUU, the “self-splicing fitness (ln)” value runs as follows: (30 °C) -2.63 ± 0.11; (37 °C) -1.84 ± 0.14.

Turning to UGUGAGCAAUAUUACGCGGG, the “self-splicing fitness (ln)” value (37 °C) was -2.31 ± 0.26.

Turning to ACCCAGCAAUAUUACGCUGC, the “self-splicing fitness (ln)” value is -3.77 ± 0.26 (30 °C) and -2.88 ± 0.27 (37 °C).

AAAGAGCAAUAUUACGACGU: the “self-splicing fitness (ln)” value (30 °C) is -1.63 ± 0.084 and the “self-splicing fitness (ln)” value (37 °C) is -0.555 ± 0.089.

Turning to CAAGAGCAAUAUUACGCUCG, the “self-splicing fitness (ln)” value is -2.16 ± 0.44 (30 °C) and -1.26 ± 0.41 (37 °C).

Regarding CACGAGCAAUAUUACGCAAU, the “self-splicing fitness (ln)” value by setting is: (30 °C) -4.23 ± 0.19; (37 °C) -2.99 ± 0.16.

CGGUAGCAAUAUUACGCUUC: the “self-splicing fitness (ln)” value (37 °C) was -0.894 ± 0.24.

In the case of CGUCAGCAAUAUUACGACAG, the “self-splicing fitness (ln)” value (30 °C) is -0.576 ± 0.097 and the “self-splicing fitness (ln)” value (37 °C) stood at 0.297 ± 0.13.

For ACCCAGCAAUAUUACGCCAA, the “self-splicing fitness (ln)” value by setting is: (30 °C) -2.43 ± 0.15; (37 °C) -2.03 ± 0.15.

In the case of AUCCAGCAAUAUUACGUCAG, the “self-splicing fitness (ln)” value reads like this: (30 °C) -2.99 ± 0.11; (37 °C) -2.15 ± 0.12.

Take CUCAAGCAAUAUUACGGGCA: the “self-splicing fitness (ln)” value (30 °C) was -2.74 ± 0.15 and the “self-splicing fitness (ln)” value (37 °C) is -2.48 ± 0.16.

GAAAAGCAAUAUUACGGAGA: the “self-splicing fitness (ln)” value runs as follows: (30 °C) -3.59 ± 0.26; (37 °C) -2.19 ± 0.21.

For UCAUAGCAAUAUUACGGGCU, the “self-splicing fitness (ln)” value (37 °C) was -2.19 ± 0.32.

Turning to CCCCAGCAAUAUUACGGUCU, the “self-splicing fitness (ln)” value (30 °C) is -3.81 ± 0.13 and the “self-splicing fitness (ln)” value (37 °C) is -2.73 ± 0.17.

Take UCCUAGCAAUAUUACGCGUU: the “self-splicing fitness (ln)” value reads like this: (30 °C) -2.01 ± 0.095; (37 °C) -0.94 ± 0.1.

On to UGUUAGCAAUAUUACGACAG, for which the “self-splicing fitness (ln)” value is -1.39 ± 0.17 (30 °C) and 0.0704 ± 0.2 (37 °C).

As for AGGGAGCAAUAUUACGUCGC, for the setting “30 °C”, the “self-splicing fitness (ln)” value is -1.42 ± 0.34.

Consider UGAAAGCAAUAUUACGACCU, for which the “self-splicing fitness (ln)” value runs as follows: (30 °C) -0.0194 ± 0.1; (37 °C) 0.188 ± 0.12.

CUGGAGCAAUAUUACGAGGG: the “self-splicing fitness (ln)” value is -2.67 ± 0.24 (30 °C) and -2.08 ± 0.34 (37 °C).

For the sequence GUAGAGCAAUAUUACGCUCA, the “self-splicing fitness (ln)” value (30 °C) is -0.751 ± 0.1 and the “self-splicing fitness (ln)” value (37 °C) was -0.0338 ± 0.16.

Regarding ACUGAGCAAUAUUACGUCCG, the “self-splicing fitness (ln)” value runs as follows: (30 °C) -2.79 ± 0.17; (37 °C) -1.58 ± 0.17.

Turning to AUUGAGCAAUAUUACGAUCA, the “self-splicing fitness (ln)” value is, setting by setting: (30 °C) -1.91 ± 0.16; (37 °C) -2.07 ± 0.17.

In the case of AGCUAGCAAUAUUACGCAUG, the “self-splicing fitness (ln)” value (30 °C) was -2.12 ± 0.16 and the “self-splicing fitness (ln)” value (37 °C) is -1.06 ± 0.12.

In the case of ACUGAGCAAUAUUACGCUGA, the “self-splicing fitness (ln)” value runs as follows: (30 °C) -2.19 ± 0.47; (37 °C) -1.2 ± 0.34.

In the case of GUUAAGCAAUAUUACGCCGG, the “self-splicing fitness (ln)” value (37 °C) was -0.148 ± 0.27.

As for GAUCAGCAAUAUUACGGCAU, the “self-splicing fitness (ln)” value is -0.0116 ± 0.068 (30 °C) and 0.0262 ± 0.092 (37 °C).

For the sequence UCUUAGCAAUAUUACGGCGC, the “self-splicing fitness (ln)” value (30 °C) was -2.61 ± 0.39.

In the case of GCCCAGCAAUAUUACGCUUA, the “self-splicing fitness (ln)” value by setting is: (30 °C) -0.569 ± 0.071; (37 °C) -0.378 ± 0.08.

For the sequence GGACAGCAAUAUUACGCGAG, the “self-splicing fitness (ln)” value runs as follows: (30 °C) -1.24 ± 0.058; (37 °C) -0.0238 ± 0.063.

As to GAUAAGCAAUAUUACGAACG, the “self-splicing fitness (ln)” value was -1.22 ± 0.14 (30 °C) and -0.754 ± 0.17 (37 °C).

As to GAACAGCAAUAUUACGGUAC, the “self-splicing fitness (ln)” value runs as follows: (30 °C) -1.37 ± 0.064; (37 °C) -0.573 ± 0.072.

For ACCCAGCAAUAUUACGCGAU, the “self-splicing fitness (ln)” value runs as follows: (30 °C) -1.84 ± 0.1; (37 °C) -1.47 ± 0.11.

Take GGGGAGCAAUAUUACGUGCU: the “self-splicing fitness (ln)” value was -1.81 ± 0.16 (30 °C) and -2.14 ± 0.33 (37 °C).

With CGGGAGCAAUAUUACGAUAU, where the note is “30 °C”, the “self-splicing fitness (ln)” value is -3.65 ± 0.35.

As for UUCGAGCAAUAUUACGGCUA, the “self-splicing fitness (ln)” value by setting is: (30 °C) -1.51 ± 0.38; (37 °C) -0.029 ± 0.37.

Regarding UUACAGCAAUAUUACGCACA, the “self-splicing fitness (ln)” value is -0.783 ± 0.12 (30 °C) and 0.168 ± 0.12 (37 °C).

On to GCUGAGCAAUAUUACGAGCC, for which the “self-splicing fitness (ln)” value (30 °C) is -1.55 ± 0.43.

Regarding CAUAAGCAAUAUUACGGUGG, the “self-splicing fitness (ln)” value was -1.24 ± 0.075 (30 °C) and -0.683 ± 0.088 (37 °C).

GUUAAGCAAUAUUACGGAGG: the “self-splicing fitness (ln)” value reads like this: (30 °C) -4 ± 0.23; (37 °C) -1.56 ± 0.19.

For the sequence UUCGAGCAAUAUUACGUGGG, the “self-splicing fitness (ln)” value is, setting by setting: (30 °C) -2.45 ± 0.12; (37 °C) -2.75 ± 0.19.

In the case of UUACAGCAAUAUUACGCCGU, the “self-splicing fitness (ln)” value (37 °C) was -2.05 ± 0.31.
